Several values for one entry are separate records, joined by “and”; a condition that tells them apart may be missing. Equal entries are not always repeated.
T1: MBP-Orf (Bacteriophage lambda, UniProt P03765 1-146)
T1 sequence: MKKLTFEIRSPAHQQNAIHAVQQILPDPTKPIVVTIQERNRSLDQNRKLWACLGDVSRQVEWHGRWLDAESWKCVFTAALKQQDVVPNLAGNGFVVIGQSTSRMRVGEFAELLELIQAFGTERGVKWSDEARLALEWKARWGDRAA


Experiments:
[1] = molecular target: T2, E. coli SSB (single-stranded DNA binding protein), wild type (E. coli, UniProt P0AGE0 1-178); test: far-Western; purified SSB wt or mutant (0.5-5 µg) separated on 15% SDS-PAGE, blotted to PVDF, probed with 20-30 µg YbcN or Orf fused to MBP or GST; detected with anti-MBP or anti-GST antibodies; details: both partners purified
T2 construct: also called wt SSB; source: purified as described [13]
T2 sequence (P0AGE0 whole entry, the tested form may be a part): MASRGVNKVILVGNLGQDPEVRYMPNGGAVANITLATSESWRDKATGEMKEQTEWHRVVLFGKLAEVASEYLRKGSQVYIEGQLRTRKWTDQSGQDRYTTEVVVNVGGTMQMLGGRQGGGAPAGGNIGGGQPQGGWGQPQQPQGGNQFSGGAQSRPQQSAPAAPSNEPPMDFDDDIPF

[2] = molecular target: the molecule itself; test: SEC; 1 mg/ml protein on a 24 ml Superose 12 HR 10/30 column in 20 mM Tris-HCl pH 8.0, 1 mM EDTA, 0.5 mM DTT, 150 mM KCl
[3] = molecular target: T1, MBP-Orf; test: EMSA; 5 mM EDTA; better than DS60; EMSA: 50 mM Tris-HCl pH 8.0, 5 mM EDTA (or 1 mM MgCl2), 1 mM DTT, 5% glycerol, 100 ug/ml BSA, on ice 15 min, 4% PAGE; anisotropy: 100 mM Tris-HCl pH 7.0, 10 nM; details: protein: recombinant, tags: N-terminal MBP, chain copies: 2, label: 5'-32P on strand 1, blunt

Binder	binding result [1]	stoichiometry N [2]	binding result ([3]; central 5 nt bubble)	binding result ([3]; central 13 nt bubble)
MBP-Orf K48A (natural protein, bacteriophage λ, Orf (NinB) of bacteriophage λ with K48A; Mutant derivative in pMALc2; One paragraph calls residue 48 Arg48, others Lys48; source: E. coli BL21-AI carrying the pMALc2 construct, purified (amylose) as described [13]) MKKLTFEIRSPAHQQNAIHAVQQILPDPTKPIVVTIQERNRSLDQNRALWACLGDVSRQVEWHGRWLDAESWKCVFTAALKQQDVVPNLAGNGFVVIGQSTSRMRVGEFAELLELIQAFGTERGVKWSDEARLALEWKARWGDRAA	binds	2	–	–
MBP-Orf W50A (natural protein, bacteriophage λ, Orf (NinB) of bacteriophage λ with W50A; Mutant derivative in pMALc2; source: E. coli BL21-AI carrying the pMALc2 construct, purified (amylose, heparin-agarose)) MKKLTFEIRSPAHQQNAIHAVQQILPDPTKPIVVTIQERNRSLDQNRKLAACLGDVSRQVEWHGRWLDAESWKCVFTAALKQQDVVPNLAGNGFVVIGQSTSRMRVGEFAELLELIQAFGTERGVKWSDEARLALEWKARWGDRAA	binds	2	–	–
MBP-Orf V106E (natural protein, bacteriophage λ, Orf (NinB) of bacteriophage λ with V106E; Mutant derivative in pMALc2; Tends to form multimers or aggregates; source: E. coli BL21-AI carrying the pMALc2 construct, purified (amylose, heparin-agarose)) MKKLTFEIRSPAHQQNAIHAVQQILPDPTKPIVVTIQERNRSLDQNRKLWACLGDVSRQVEWHGRWLDAESWKCVFTAALKQQDVVPNLAGNGFVVIGQSTSRMREGEFAELLELIQAFGTERGVKWSDEARLALEWKARWGDRAA	binds	2 and 4	–	–
MBP-Orf R103E (natural protein, bacteriophage λ, Orf (NinB) of bacteriophage λ with R103E; Mutant derivative in pMALc2; source: E. coli BL21-AI carrying the pMALc2 construct, purified (amylose, heparin-agarose)) MKKLTFEIRSPAHQQNAIHAVQQILPDPTKPIVVTIQERNRSLDQNRKLWACLGDVSRQVEWHGRWLDAESWKCVFTAALKQQDVVPNLAGNGFVVIGQSTSEMRVGEFAELLELIQAFGTERGVKWSDEARLALEWKARWGDRAA	binds	2	–	–
MBP-Orf Q45A (natural protein, bacteriophage λ, Orf (NinB) of bacteriophage λ with Q45A; Mutant derivative in pMALc2; source: E. coli BL21-AI carrying the pMALc2 construct, purified (amylose, heparin-agarose)) MKKLTFEIRSPAHQQNAIHAVQQILPDPTKPIVVTIQERNRSLDANRKLWACLGDVSRQVEWHGRWLDAESWKCVFTAALKQQDVVPNLAGNGFVVIGQSTSRMRVGEFAELLELIQAFGTERGVKWSDEARLALEWKARWGDRAA	binds	2	–	–
MBP-Orf W137A (natural protein, bacteriophage λ, Orf (NinB) of bacteriophage λ with W137A; Mutant derivative in pMALc2; source: E. coli BL21-AI carrying the pMALc2 construct, purified (amylose) as described [13]) MKKLTFEIRSPAHQQNAIHAVQQILPDPTKPIVVTIQERNRSLDQNRKLWACLGDVSRQVEWHGRWLDAESWKCVFTAALKQQDVVPNLAGNGFVVIGQSTSRMRVGEFAELLELIQAFGTERGVKWSDEARLALEAKARWGDRAA	binds	2	–	–
BB5 (structured_DNA) DNA 1: TTTGGTCTAACTTTACCGCTACTAAATGCCGCGGATTGGTTTCGCTGAATCAGGTTATTA DNA 2: TAATAACCTGATTCAGCGAAACCAATCGCAACCATTTAGTAGCGGTAAAGTTAGACCAAA	–	–	binds	–
BB13 (structured_DNA) DNA 1: TTTGGTCTAACTTTACCGCTACTAAATGCCGCGGATTGGTTTCGCTGAATCAGGTTATTA DNA 2: TAATAACCTGATTCAGCGAAACATTGTAGGTAAGCTTAGTAGCGGTAAAGTTAGACCAAA	–	–	–	binds
